The RNAGym collection of RNA variant scans (doi:10.1073/pnas.2313332121)

B1: TPR t1 (parent)
chain: GACCAAUCUGCCCUCAGAGCUCGAGAACAUCUUCGGAUGCAGAGGAGGCAGGCUUCGGUGGCGCGAUAGCGCCAACGUCCUCAACCUCCAAUGCAUCCCACCACAUGAUGAUGCCUGAAGAGCCUUGGUUUUUUG

Variants of: B1
Assay: polymerase ribozyme fitness, log enrichment relative to wild type (log ratio); higher = more active; in vitro selection for triplet polymerase activity
Summary of the method: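 The heterodimeric triplet polymerase ribozyme's subunits were each mutagenized into PCR-built libraries and transcribed. Every library was selected once, in triplicate, by annealing with a biotinylated primer, the partner subunit and triplets, incubating frozen at −7 °C, gel-excising extended constructs, capturing on streptavidin beads and running RT-PCR. Input and output libraries were Illumina-sequenced, with genotypes kept only at ≥10 input reads and ≥1 read per output. Fitness, from inverse-variance-weighted replicate averages, is the base-2 logarithm of genotype enrichment over wild-type enrichment.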

Row | Variant | polymerase ribozyme fitness (log ratio)
1 | GACCAAUCUGCCCUCAGAGGUCGAGAACAUCUUCGGAUGCUGAGGAGGCAGGCUUCGGUGGCGCGAUAGCGCCAACGUCCUCAACCUCCAAUGCAUCCCACCAAAUGAUGAUACCUGAAGAGCCUUGGUUUCUUG | -5.25
2 | GACCAAUCUGCCCUCAGAGCUCGAGAACAUCUUCGGAUGCAGAGGAGGCAGGCUUCGGUGGUGCGAUAGCGCCAACGUCCUCAACCUCCAAGGCAUCCAACCACAUGAUGAUGCCUGAAGAGCUUUGGUUCUUUG | -5.96
3 | GACCAAUCUGCCCUCAGAGCUCGAGAACAUCUUCGGAUGCAGAGGAGGCAGGCUUCGGUGGCGCGAUAGCGCCAACGUCCUCAACCUCCAAUGCAUCCCACCACAUGAUGAUACCUGAAGGGCCUUGGUUUUUUG | -0.104
4 | GACCAAUCUGCCCUCAGAGCUCGAGAACAUCUUCGGAUGCAGAGGAGGCAGGCUUCGGUGGAGCGAUAGCGCCAACGUCCUCAAUCUCCAAUGCAUCCCACCACAUGAUGAUGCCUGAAGAGCCUUGGUUUUUUG | -0.762
5 | GACCAAUCUGCCCUCAGAGCUCGAGAACAUCUUCGGAUGCAGAGGAGGCAGGCUUCGGUGGCGCGAUAGCGCCAACGUCCUCAGCCUCCAACGCAUCCCACCACAGGAUGAUCCCUGAAGAGCCUUGGUUUUUUG | -4.32
6 | GACCAAUCUGCCCUCAGAGCUCGAGAACAUCUUCGGAUGCAGAGGAGGCAGGCUUCGGUGGAGCGAUAGCGCCGACGUCCUCAACCUCCAAUGCAUCCCACCACAUGAUGAUGCCUGAAGAGCCUUGGUUUUUUG | -5.22
7 | GACCAAUCUGCCCUCAGAGCUCGAGAACAUCUUCGGAUGCAGAGGAGGCAGGCUUCGGUGGCGCGAUAGCGCCAACGUCCUCAACCUCCAAUGCUUCCCACCACAUGAUGAUGCCUGAAGAGCCUUGGCUUUUUG | -0.935
8 | GACCAAUCUGCCCUCAGAGCUCGAGAACAUCUUCGGAUGCAGAGGAGGCAGGCUUCGGUGGCGCGAUAGCGCCAACGUCCUCAACCUCCAAAGCAUCCCACCACAUGAUGAUGACUGAAGAGCCUUGGUUUUUUG | -3.48
9 | GACCAAUCUGCGCUCAGAGCUCGAGAACAUCUUCGGAUGCAGAGGAGGCAGGCUUCGGUGGCGCGAUAGCGCCAACGCCCUCAACCUCCAAUGCAUCCCACCACAUGAUGAUGCCUGAAGAGCCAUGGUUUUUUG | -0.607
10 | GACCAAUCUGCCCUCAGAGCUCGAGAACAGCUUCGGAUGCAGAGGAGGCAGGCUUCGGUGGCGCGAUAGCGCCAACGUCCUCAACCUCCAAUGCAUCCCACCACAUGAUGAUGCCUGAAGAGCCUUGGUUUUUUG | -5.83
11 | GGCCAAUCUGCCCUCAGAGCUCGAGAACAUCUUCGGAUGCAGAGGAGGCAGGCUUCGGUGCCGCGAUAGCGCCAACGUCCUCAACCUUCAAUGCAUCCCACCACAUGAUGAUGCCUGAAGAGCAUUGGUUUUUUG | -0.51
12 | GACCAAUCUGCCCUAAGAGGUCGAGAACAUCUUCGGAUGCAGAGGAGGCAGGCUUCGGUGGCGCGAUAGCUCCAACGUCCUCAACCUCCACUGCAUCGCACCACAUGAUGAUGCCUGAAGAGUCUUGGUUUUGUG | -4.96
13 | GACCAAUCUGCCCUCAGAGCUCGAGAACAUCUUCGGAUGCAGAGGAGGCAGGCUGCGGUGGCGCGAUAGCGCCAACGUCCUCAACCUCCAAUGCAACCCACCACAUGAUGAUGCUUGAAGAGCCUUGGUUUUUUG | -2.35
14 | GACCAAUCUGCCCUCAGAGCUCGAGAACAUCUUCGGAUGCAGAGGAGGCAGGCAUCGGUGGCGCGAUAGCGGCAACGUCCUCAACCUCCAAUGCAUCCCACCACAUGAUGAUGCCUGAAGAGCCUUGGUUUUUUG | -0.955
15 | GACCAAUCUGCCCUCAGAGCUCGAGAACAUCUUCGGAUGCAGAGGAGGCAGGCUUCGGUGGUGCGAUAGCGCCAACGUCGUCAACCUCCAAUGCAUCCCACCACAUGAUGAUGCCUGAAGAGCGUUGGUUUUUUG | -5.66
16 | GACGAACCUGCCCUCAGAGCUCGAGAACAUCUUCGGAUGCAGAGGAGGCAGGCUUCGGUGGCGCGAUAUCGCCAACGUCCUCAACCUCCAAUGCAUCCCACCACAUGAUGAUGCCUGAAGAGCCUUGGUUUUUUG | -0.0887
17 | GACCAAUCUGCCCUCAGAGCUCGAGAACAUCUUCGGAUGCAGAGGAGGCAGGCUUCGGUGGCGCGAUGGCGCCAACGAUCUCAACCUCCAAUGCAUCCCACCACAGGAUGAUGCCUGAAGAGCCUUGGUUUUUUG | -6.12
18 | GACCAAUCUGUCCUCAGAGCUCGAGAACAUCUUCGGAUGCAGAGGAGGCAGGCUUCGGUGUCGCGAUAGCGCCAACGUCCUCAACCUCCAAUGCAUCCCACCACAUGAUGAUGCCUGAAGAGCCUUGGUUUUUUG | -0.841
19 | GACCAAUCUGCCCUCAGAGCUCGAGAACUUCUUUGGAUGCAGAGGAGGCAGGCUUCGGUGGCGCGAUAGCGCCAACGUCCUCAACCUCCAAUGCAUCCCACCACAUGAUGAUGCCUGAAGAGCCUUGGUUUUUUG | -4.41
20 | GACCAAUCUGCCCUCUGAGCUCGAGAACAUCUUCGGAUGAAGAGGAGGCAGGCCUCGGUAGCGCGAUAGCGCCAACGUCCUCAACCUCCAAUGCAUCCCACCACAUGAUGAUGCCUGAAGAGCCUUGGUUUUUUG | -2.69
21 | GACCAAUCUGCCCUCAGAGCUCGAGAACAUCUUCGGAUGCAGAGGAGGCAGGCUUCGGUGGCGCGAUAGCGCCAACGUCCUCAACCUCGAAUGCAUCCCACCACAUGAUGAUCCCUGAAGAGCCUUGGUUUUUUG | -3.04

Row | Variant | polymerase ribozyme fitness (log ratio)
22 | GACCAAUCUGCCCUCAGAGCUCGAGAACAUCUUCGGAUGCAGAGGAGACAGGCUUCGGUGGCGCGAUAGCGCCAACGUCGUCAACCUCCAAUGCCUCCCACCACAUGAGGAUGCCUGAAGAGCCUUGGUUUUUUG | -7.79
23 | GAUCAAUCGGCCCUCAGAGCUCGAGAACAUCUUCGGAUGCAGAGGAGGCAGGCUUCGGUGGCGCGAUAGCGCCAACGUCCUCAACCUCCAAUGCAUCCCACCACAUGAUGAUGCCUGAAGAGCCUUGGUUUUUUG | 0.724
24 | GACCAAUCUGCCCUCAGAGCUCGAGAACAUCUUCGGAUGCAGAGGAGGCAGGCUUCGGUGGCGCGAUAGCGCCAACGUCCUCAACCUCCGAUGCAUUCCACCACAUGAUGAUGCCUGAAGAGCCUUGGUUUUUUG | 0.255
25 | GACCAAUCUGCCCUCAGAGCUCGAGAACAUCUUCGGAUGCAGAGGUGGUAGGCUUCGGUGGCGCGAUAGCGCCAACGUCCUCAACCUCCAAAGCAUCCCACCACAAGAUGAUGCCUGAAGAGCCUUGGUUUUUUG | -7.34
26 | GACCAAUCUGCCCUCAGAGCUCGAGAACAUCUUCGGAUGCAGAGGAGGGAGGCUUCGGUGGCGCGAUAGGGCCAACUACCUCAAACUCCAAUGCAUCCCACCACAUGAUGAUGCCUGAAGAGCCUUGGUUUUUUG | -2.95
27 | GACCAAUCUGCCCUCAGAGCUCGAGAACAUCUUCGGAUGCAGAGUAGGCAGGCUUCGGUGGCGCGAUAGCGCCAACGUCCUCAACCUCCAAUACAUCCCACCACAUGAUGAUGCCUGAAGAGCCUUGGUUUUUUG | -1.79
28 | GACCAAUCUGCCCUCAGAGCUCGAGAACAUCUUCGGAUGCAGAGGAGGCAGGCUUCGGUGGCGCGAUAGCGCCAACGUCCUCAACCUCCAAUACAUCCCACCACAUGAUGAUGACUGAUGACCCUUGGUUUUUUG | -3.4
29 | GACCAAUCUGCCCUCAGAGCUCGAGAACAUCCUCGGAUGCAGAGGAGGCAGGCUUCGGUGGCGCGAUAGCUCCAACGUCCUCAACCUCCAAUGCAUCCCACCACAUGAUGAUGCCUGAAGAGCCUUGGAUUUUUG | -1.48
30 | GACCAGCCUGCCCUCAGAGCUCGAGAACAUCUUCGGAUGCAGAGGAGGCAGGCUUCGGUGGCGCGAUAGCGCCCACGUCGUCAACCUCCAAUGCAUCCCACCACAUGAUGAGGCCUGAAGAGCCUUGGUUUUUUG | -6.27
31 | GACCAAUCUGCCCUCAGAGCUCGAGAAGAUCUUCGGAUGCAGAGGAGGCAGGCUUGGGUGGCGCGAUAGCGCCAACGUCCUCAACCUCCAAUGCAUCCCACCACAUGAUGAUGCCUGAAGAGCCUUGGUUUUUUG | -3.01
32 | GACCAAUCUGCCCUCAGAGCUCGAGUACAUCUUCGGAUGCAGAGGAGGCAGGCUUCGGUGGCGCGAUAGCGCCAACGUCCUCAACCUACAAUGCAUCCCACCACAUGAUGAUGCCUGAUGAGCCUUGGUUUUUUG | -4.48
33 | GACCAAUCUGCCCUCAGAGUUCGAGAACAUCUUCGGAUGCAGAGGAGGCAGGCUUCGGUUGCGCGAUAGCGCCAACGUCCUCAACCUCCAAUGCAUCCCACCACAUGAUAAUGCCUGAAGAGCCUUGGUUUUUUG | -3.8
34 | GACCAAUCUGCCCUCAGGGCUCGAGAACAUCUUCGGAUGCAGAGGAGGCAGGCUUCGGUGGCGCGAUAGCGCCAACGUCCUCAACCUCCAAUGCAUCCCACCACAUGAUGAUGUCUGAAGAGCCUUGGUUUUUUG | -3.96
35 | GACCAAUCUGCCCUCAGAGCUCGAGAACAUCUUCGGAUGCAGAGAAGGCAGGCUUCGGUGGCGUGAUAGCGCCAACGUCCUCAACUUCCAAUGCAUCCCACCACAUGAUGAUGCAUGAAGAGGCUUGGUUUUUUG | -1.22
36 | GACCAAUCUGCCCUCAGAGCUCGAGAACAUCUUAGGAUGCAGAGGAGUCAGGCUUCGGUGGCGCGAUAGCGCCAACGUCCUCAACCUCCAAUCCAUCCCACCACAUGAUGAUGCCUGAAGAGCCUUGGUUUUUUG | -4.96
37 | GACCAAUCUGCCCUCAGAGCUCGAGAACAUCUUCGGAUGCAGAGGAGGCAGGCUUCGGUGGCGCGAUAGCGCCAACGUCCUCAACCUCCAAUGCAUCUCACCACAUGAUGAUGCCUGAAGAGCCUGGUUUUUUUG | -2.42
38 | GACCAAUCUGCCCUCAGAGCUCGAGAACAUCUUCGGUUGCAGAGCCGGCAGGCUUCGGUGGCGCGAUAGCGCCAACGACCUCAACCUCCAAUGCAUCCCACCACAUGAUGAUGCCUGAAGAGCCUUGGUUUUUUG | -2.59
39 | GACCAAUCUGCCCUCAGAGCUCGAAAACAUCUACGGAUGCAGAGGAGGCAGGCUUCGGUGACGCGAUAGCGCCAACUUCCUCAACCUCCAAUGCAUCCCACCACAUGAUGAUGCAUGAAGAGCCUUGGUUUUUUG | -6.46
40 | GACCAAUCUGCCCUCAGAGCUCGAGAACAUCGUCGGAUGCAGAGGAGUCAGGCUUCGGUGGCGCGAUAGCGGCAACGUCCUCAACCUCCAAUGCAUCCCACUACAUGAUGAUGCCUGAACAGCCUUGGUUUUUUG | -7.94
41 | GAACAAUCUGCCCUCAGAGCUCGAGAACAUCUUUGGAUGCAGAGGAGGCAGGCUUCGGUGGCGCGAUAGCGCCAACGUUCUCAACCUCCAAUGCAUCCCACCACAUGAUGAUGACUGAAGAGCGUUGUUUUUUUG | -4.76
42 | GACCAAUCUGCCCUUAGAGCUCGAGAACAUCUUCGGAUGCAGAGGAGGCAGGCUUCGGUGGCGCGAUAGCGCCAACGACCUCAACGUCCAAUGCAUCCCACCACAUGAUGAUGCCUGAAGAGCCUUGGUUUUUUG | -3.29
